We go through 77 sequences from the supplement of paper PMC7877785.

± gives the uncertainty stated by the source.

The nature of the data set: self-splicing fitness, log relative to wild type (ln ratio); higher = more splicing; Tetrahymena group I intron in knt gene, E. coli kanamycin selection, DiMSum; sequences stand for … in CUCUCU…GGAGGGAAAAGUUAUCAGGCAUGCACCUGGUAGCUAGUCUUUAAACCAAUAGAUUGCAUCGGUUUAAAAGGCAAGACCGUCAAAUUGCGGGAAAGGGGUCAACAGCCGUUCAGUACCAAGUCUCAGGGGAAACUUUGAGAUGGCCUUGCAAAGGGUAUGGUAAUAAGCUGACGGACAUGGUCCUAACCACGCAGCCAAGUCCUAAGUCAACAGAUCUUCUGUUGAUAUGGAUGCAGUUCACAGACUAAAUGUCGGUCGGGGAAGAUGUAUUCUUCUCAUAAGAUAUAGUCGGACCUCUCCUUAAUGGGAGCUAGCGGAUGAAGUGAUGCAACACUGGAGCCGCUGGGAACUAAUUUGUAUGCGAAAGUAUAUUGAUUAGUUUUGGAGUACUCGUGGUCG
The method in brief: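 Six replicate transformations of E. coli BL21(DE3) with a pET-22b(+) library were grown overnight at 37°C or 30°C. The library randomised all eight P1ex-region intron nucleotides, the intron lying in the knt kanamycin-resistance gene, and plates were LB agar with or without 25 μg/mL kanamycin plus 100 μg/mL carbenicillin, 50 μM IPTG and 0.2% rhamnose. Pooled colonies were amplicon-sequenced on an Illumina HiSeq 2500, and fitness is the DiMSum error-weighted combination of wild-type-normalised replicate fold changes, kanamycin versus none.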

With GAUAAGCAAUAUUACGACAA, the “self-splicing fitness (ln)” value (30 °C) is -1.46 ± 0.11 and the “self-splicing fitness (ln)” value (37 °C) is -0.276 ± 0.14. Consider UCUAAGCAAUAUUACGUAAG, for which the “self-splicing fitness (ln)” value is, setting by setting: (30 °C) -0.798 ± 0.075; (37 °C) -0.333 ± 0.1. The matching figures for AUGGAGCAAUAUUACGCGAU: -2.66 ± 0.49 and -1.82 ± 0.4. The like results for GGCAAGCAAUAUUACGAGAA were, in that order, -1.8 ± 0.29 and -1.74 ± 0.26. The like results for UCAGAGCAAUAUUACGACGA were, in that order, -0.0796 ± 0.1 and -0.26 ± 0.11. Turning to AGAGAGCAAUAUUACGCAGA, under “30 °C”, the “self-splicing fitness (ln)” value is -1.67 ± 0.22. As for CUACAGCAAUAUUACGGUAC, the “self-splicing fitness (ln)” value is, setting by setting: (30 °C) -2.81 ± 0.13; (37 °C) -1.13 ± 0.18. GAAAAGCAAUAUUACGUCGU: the “self-splicing fitness (ln)” value by setting is: (30 °C) -0.785 ± 0.086; (37 °C) -1.29 ± 0.12.

As to GGGUAGCAAUAUUACGGGUU, the “self-splicing fitness (ln)” value is -2.7 ± 0.15 (30 °C) and -1.27 ± 0.14 (37 °C). The like results for AAUGAGCAAUAUUACGUGCU were, in that order, -3.93 ± 0.36 and -2.44 ± 0.25. Turning to GGGUAGCAAUAUUACGCGGA, the “self-splicing fitness (ln)” value by setting is: (30 °C) -2.64 ± 0.27; (37 °C) -1.06 ± 0.13. The like results for AUAUAGCAAUAUUACGCCGG were, in that order, -3.65 ± 0.37 and -0.796 ± 0.3. Consider GAUUAGCAAUAUUACGUUAC, for which the “self-splicing fitness (ln)” value reads like this: (30 °C) -2.63 ± 0.19; (37 °C) -2.53 ± 0.23. As for GAGCAGCAAUAUUACGUGGA, the “self-splicing fitness (ln)” value reads like this: (30 °C) -3.09 ± 0.22; (37 °C) -1.69 ± 0.15. The matching figures for AGCGAGCAAUAUUACGGGGU: -3.54 ± 0.22 and -1.59 ± 0.19. Regarding AGCUAGCAAUAUUACGAAUC, the “self-splicing fitness (ln)” value (37 °C) was -1.56 ± 0.28.

Take UCAAAGCAAUAUUACGAUGA: the “self-splicing fitness (ln)” value runs as follows: (30 °C) -0.6 ± 0.074; (37 °C) -0.51 ± 0.084.

CUGUAGCAAUAUUACGUCAC: the “self-splicing fitness (ln)” value (30 °C) was -3.21 ± 0.24.

Take UAGAAGCAAUAUUACGUAGG: the “self-splicing fitness (ln)” value is -1.78 ± 0.093 (30 °C) and -1.61 ± 0.16 (37 °C). ACCAAGCAAUAUUACGGGUU: the “self-splicing fitness (ln)” value is -4.06 ± 0.14 (30 °C) and -3.14 ± 0.17 (37 °C). On to CCGAAGCAAUAUUACGCUCA, for which the “self-splicing fitness (ln)” value by setting is: (30 °C) -3.65 ± 0.33; (37 °C) -3.47 ± 0.42. Regarding AGGCAGCAAUAUUACGGGCC, the “self-splicing fitness (ln)” value reads like this: (30 °C) -2.17 ± 0.29; (37 °C) -1.52 ± 0.26. For CUGGAGCAAUAUUACGGCCG, the “self-splicing fitness (ln)” value (30 °C) is -0.999 ± 0.27. With UCGCAGCAAUAUUACGACCU, the “self-splicing fitness (ln)” value (30 °C) is -3.1 ± 0.41 and the “self-splicing fitness (ln)” value (37 °C) is -1.37 ± 0.27. Regarding CGCAAGCAAUAUUACGGCAG, the “self-splicing fitness (ln)” value is, setting by setting: (30 °C) -0.448 ± 0.072; (37 °C) -0.305 ± 0.1. On to CACGAGCAAUAUUACGCAUA, for which the “self-splicing fitness (ln)” value is -3.1 ± 0.15 (30 °C) and -2.61 ± 0.18 (37 °C). The matching figures for AGGCAGCAAUAUUACGACCC: -0.357 ± 0.31 and -0.702 ± 0.5. Consider CCUCAGCAAUAUUACGGUCC, for which, where the note is “30 °C”, the “self-splicing fitness (ln)” value is -4.07 ± 0.36. With UUGGAGCAAUAUUACGUCCA, the “self-splicing fitness (ln)” value reads like this: (30 °C) -2.2 ± 0.2; (37 °C) -1.74 ± 0.23.

In the case of AUAUAGCAAUAUUACGAAAC, the “self-splicing fitness (ln)” value reads like this: (30 °C) -2.85 ± 0.29; (37 °C) -2.03 ± 0.34. The like results for CGCAAGCAAUAUUACGCGGC were, in that order, -3.05 ± 0.28 and -2.81 ± 0.38. On to GAUCAGCAAUAUUACGGAUG, for which the “self-splicing fitness (ln)” value reads like this: (30 °C) -1.19 ± 0.068; (37 °C) -0.813 ± 0.076. The like results for CCUGAGCAAUAUUACGGCAU were, in that order, -3.93 ± 0.23 and -4.08 ± 0.42.

Take CUCAAGCAAUAUUACGGUCG: the “self-splicing fitness (ln)” value was -1.96 ± 0.098 (30 °C) and -1.19 ± 0.12 (37 °C). As for GAUAAGCAAUAUUACGCUUG, the “self-splicing fitness (ln)” value (30 °C) is -2.05 ± 0.1 and the “self-splicing fitness (ln)” value (37 °C) was -0.952 ± 0.1. Take AAUGAGCAAUAUUACGUCUG: the “self-splicing fitness (ln)” value (30 °C) is -2.92 ± 0.15 and the “self-splicing fitness (ln)” value (37 °C) was -3 ± 0.21.

As to GAGGAGCAAUAUUACGCCUG, the “self-splicing fitness (ln)” value (30 °C) is -2.07 ± 0.41 and the “self-splicing fitness (ln)” value (37 °C) was -1.3 ± 0.44. AGUCAGCAAUAUUACGAGAA: for the setting “37 °C”, the “self-splicing fitness (ln)” value is -1.35 ± 0.36. As for UAGAAGCAAUAUUACGUUAU, the “self-splicing fitness (ln)” value (30 °C) was -3.81 ± 0.14 and the “self-splicing fitness (ln)” value (37 °C) was -2.76 ± 0.12. The matching figures for UGCAAGCAAUAUUACGCUCU: -0.965 ± 0.12 and -0.235 ± 0.13.

As to ACUAAGCAAUAUUACGAUCG, the “self-splicing fitness (ln)” value reads like this: (30 °C) -0.981 ± 0.15; (37 °C) 0.89 ± 0.18.

With CGUGAGCAAUAUUACGGGGA, the “self-splicing fitness (ln)” value (30 °C) is -3.34 ± 0.4 and the “self-splicing fitness (ln)” value (37 °C) is -3.62 ± 0.42. For GUAAAGCAAUAUUACGCACU, the “self-splicing fitness (ln)” value was 0.0854 ± 0.099 (30 °C) and -0.289 ± 0.12 (37 °C). Take ACCCAGCAAUAUUACGUGUU: the “self-splicing fitness (ln)” value (30 °C) is -1.45 ± 0.047 and the “self-splicing fitness (ln)” value (37 °C) is -0.111 ± 0.061. The like results for CCAAAGCAAUAUUACGUGCG were, in that order, -0.979 ± 0.065 and -0.611 ± 0.081. The matching figures for AGACAGCAAUAUUACGCUGU: -4.06 ± 0.29 and -2.54 ± 0.21.

Regarding AAGCAGCAAUAUUACGUUAU, the “self-splicing fitness (ln)” value was -2.38 ± 0.089 (30 °C) and -1.21 ± 0.1 (37 °C). In the case of CCACAGCAAUAUUACGUUUA, the “self-splicing fitness (ln)” value is -3.53 ± 0.15 (30 °C) and -2.47 ± 0.16 (37 °C). The like results for UCUUAGCAAUAUUACGGAUU were, in that order, -2.71 ± 0.41 and -2.22 ± 0.21. The like results for AAGUAGCAAUAUUACGCCUG were, in that order, -0.259 ± 0.14 and -0.00805 ± 0.14. The matching figures for ACAAAGCAAUAUUACGCUAC: -3.07 ± 0.28 and -2.43 ± 0.33.

In the case of AAGCAGCAAUAUUACGUGCG, the “self-splicing fitness (ln)” value is -0.989 ± 0.073 (30 °C) and -0.0742 ± 0.092 (37 °C).

For CUCUAGCAAUAUUACGGGAC, the “self-splicing fitness (ln)” value is, setting by setting: (30 °C) -2.77 ± 0.19; (37 °C) -3.65 ± 0.46. Regarding UAUAAGCAAUAUUACGCGCU, the “self-splicing fitness (ln)” value was -0.854 ± 0.18 (30 °C) and 0.225 ± 0.23 (37 °C). As for AGUAAGCAAUAUUACGCUAG, the “self-splicing fitness (ln)” value runs as follows: (30 °C) -2.83 ± 0.24; (37 °C) -2.39 ± 0.23. For GGAUAGCAAUAUUACGACGG, the “self-splicing fitness (ln)” value (37 °C) was -2.87 ± 0.48. Take CCAGAGCAAUAUUACGGACG: the “self-splicing fitness (ln)” value runs as follows: (30 °C) -1.73 ± 0.069; (37 °C) -0.584 ± 0.085. The like results for ACUAAGCAAUAUUACGCUAA were, in that order, -3.83 ± 0.43 and -1.92 ± 0.38. On to GCGAAGCAAUAUUACGCUGA, for which the “self-splicing fitness (ln)” value was -0.605 ± 0.24 (30 °C) and -1.5 ± 0.34 (37 °C). In the case of AACAAGCAAUAUUACGACCG, the “self-splicing fitness (ln)” value runs as follows: (30 °C) -0.711 ± 0.12; (37 °C) 0.209 ± 0.16. The like results for UACAAGCAAUAUUACGAGAC were, in that order, -3.27 ± 0.43 and -1.43 ± 0.23. Turning to GGUUAGCAAUAUUACGCCUC, the “self-splicing fitness (ln)” value by setting is: (30 °C) -0.314 ± 0.17; (37 °C) -1.4 ± 0.2. The like results for AGAAAGCAAUAUUACGCUCG were, in that order, 0.431 ± 0.14 and 0.318 ± 0.18. For GAAUAGCAAUAUUACGGAUG, the “self-splicing fitness (ln)” value is -2.29 ± 0.099 (30 °C) and -2.01 ± 0.12 (37 °C). The matching figures for AUACAGCAAUAUUACGAACG: -0.79 ± 0.12 and -1.44 ± 0.17.

On to GAGCAGCAAUAUUACGGACU, for which the “self-splicing fitness (ln)” value (30 °C) was -1.32 ± 0.082 and the “self-splicing fitness (ln)” value (37 °C) was -0.127 ± 0.11. The matching figures for GGUGAGCAAUAUUACGACUG: -0.488 ± 0.11 and 0.309 ± 0.13. AUGAAGCAAUAUUACGAUCG: the “self-splicing fitness (ln)” value (30 °C) is 0.0492 ± 0.071 and the “self-splicing fitness (ln)” value (37 °C) is 0.821 ± 0.11.

As for CUAGAGCAAUAUUACGGAUA, the “self-splicing fitness (ln)” value (37 °C) was -1.44 ± 0.4. GCGCAGCAAUAUUACGAGGA: the “self-splicing fitness (ln)” value reads like this: (30 °C) -1.89 ± 0.3; (37 °C) -0.618 ± 0.16. In the case of CAGGAGCAAUAUUACGAAUG, the “self-splicing fitness (ln)” value was -3.6 ± 0.2 (30 °C) and -2.76 ± 0.22 (37 °C). With ACGCAGCAAUAUUACGGGCC, the “self-splicing fitness (ln)” value by setting is: (30 °C) -1.28 ± 0.091; (37 °C) -0.893 ± 0.12. On to GCAUAGCAAUAUUACGCAAG, for which the “self-splicing fitness (ln)” value is, setting by setting: (30 °C) -3.49 ± 0.41; (37 °C) -2.31 ± 0.33. For UGGUAGCAAUAUUACGUUAG, the “self-splicing fitness (ln)” value is -1.9 ± 0.067 (30 °C) and -0.599 ± 0.072 (37 °C). The like results for AACAAGCAAUAUUACGUCGC were, in that order, -3.63 ± 0.14 and -2.21 ± 0.17. Turning to AGCGAGCAAUAUUACGUCAU, the “self-splicing fitness (ln)” value is, setting by setting: (30 °C) -3.13 ± 0.21; (37 °C) -1.88 ± 0.2.

Take AUACAGCAAUAUUACGUGCG: the “self-splicing fitness (ln)” value is, setting by setting: (30 °C) -0.886 ± 0.081; (37 °C) -0.3 ± 0.091.
